Test results: the supplement of paper PMC9112550, “Optimization of the antimicrobial peptide Bac7 by deep mutational scanning” (BMC Biology, 2022)

Test system: Escherichia coli TOP10
Test: shrunken log2 fold change of peptide-encoding DNA abundance (4.5 h post-induction vs induction); higher = less antimicrobial activity (less host growth inhibition)
Conditions: time post-induction: 4.5 h; library: site-saturation at positions 5, 18, 19, 20
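Note: peptides expressed intracellularly from a pBAD plasmid library in pooled LB shake-flask culture, induced with 0.3% L-arabinose, DNA abundance read by NGS, three biological replicates, DESeq2 with apeglm shrinkage.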

| Sequence | shrunken log2 fold change |
| --- | --- |
| RRIRTRPPRLPRPRPRPPRKPRP | 0.25 |
| RRIRQRPPRLPRPRPRPYPWPRP | -0.266 |
| RRIRLRPPRLPRPRPRPLYSPRP | -1.1 |
| RRIRLRPPRLPRPRPRPLYTPRP | -0.461 |
| RRIRKRPPRLPRPRPRPCEIPRP | 0.128 |
| RRIRWRPPRLPRPRPRPNPEPRP | -0.0123 |
| RRIRLRPPRLPRPRPRPYVKPRP | -0.182 |
| RRIRRRPPRLPRPRPRPADNPRP | 0.111 |
| RRIRRRPPRLPRPRPRPTSDPRP | 0.256 |
| RRIRLRPPRLPRPRPRPAIRPRP | -0.111 |
| RRIRDRPPRLPRPRPRPYQAPRP | -0.0283 |
| RRIRCRPPRLPRPRPRPMEEPRP | 0.0671 |
| RRIRCRPPRLPRPRPRPHEQPRP | -0.15 |
| RRIRSRPPRLPRPRPRPSLCPRP | -0.0295 |
| RRIRLRPPRLPRPRPRPLGYPRP | -1.79 |
| RRIRFRPPRLPRPRPRPLKSPRP | -0.307 |
| RRIRCRPPRLPRPRPRPVCQPRP | -0.102 |
| RRIRFRPPRLPRPRPRPWKYPRP | -0.411 |
| RRIRLRPPRLPRPRPRPVQLPRP | 0.0978 |
| RRIRERPPRLPRPRPRPWMIPRP | -0.616 |
| RRIRERPPRLPRPRPRPEQHPRP | -0.0123 |
| RRIRMRPPRLPRPRPRPGDWPRP | 1.33 |
| RRIRCRPPRLPRPRPRPFILPRP | -0.898 |
| RRIRLRPPRLPRPRPRPWLDPRP | -0.233 |
| RRIRHRPPRLPRPRPRPKRFPRP | 0.0543 |

| Sequence | shrunken log2 fold change |
| --- | --- |
| RRIRKRPPRLPRPRPRPAIPPRP | 0.000942 |
| RRIRQRPPRLPRPRPRPITWPRP | 0.129 |
| RRIRVRPPRLPRPRPRPEKYPRP | -0.171 |
| RRIRDRPPRLPRPRPRPKSEPRP | 0.0995 |
| RRIRCRPPRLPRPRPRPQQVPRP | -0.29 |
| RRIRARPPRLPRPRPRPAWAPRP | 0.48 |
| RRIRYRPPRLPRPRPRPFHGPRP | 0.0221 |
| RRIRVRPPRLPRPRPRPEEKPRP | -0.0261 |
| RRIRWRPPRLPRPRPRPTENPRP | 0.0907 |
| RRIRVRPPRLPRPRPRPDGHPRP | -0.00145 |
| RRIRPRPPRLPRPRPRPYQQPRP | -0.139 |
| RRIRTRPPRLPRPRPRPLFWPRP | 0.134 |
| RRIRRRPPRLPRPRPRPCHPPRP | -0.0611 |
| RRIRNRPPRLPRPRPRPADVPRP | -0.289 |
| RRIRQRPPRLPRPRPRPCKYPRP | -0.0164 |
| RRIRYRPPRLPRPRPRPFIMPRP | -0.313 |
| RRIRFRPPRLPRPRPRPRHYPRP | -0.477 |
| RRIRLRPPRLPRPRPRPRAIPRP | 0.0282 |
| RRIRWRPPRLPRPRPRPGWFPRP | 0.249 |
| RRIRRRPPRLPRPRPRPYKVPRP | -0.193 |
| RRIRSRPPRLPRPRPRPTHFPRP | -0.0655 |
| RRIRWRPPRLPRPRPRPHRMPRP | -0.203 |
| RRIRLRPPRLPRPRPRPVRAPRP | 0.687 |
| RRIRLRPPRLPRPRPRPPLQPRP | 0.67 |
| RRIRCRPPRLPRPRPRPLGSPRP | -0.423 |

| Sequence | shrunken log2 fold change |
| --- | --- |
| RRIRERPPRLPRPRPRPNDPPRP | -0.488 |
| RRIRKRPPRLPRPRPRPTSVPRP | 0.0245 |
| RRIRDRPPRLPRPRPRPFCPPRP | -0.277 |
| RRIRERPPRLPRPRPRPLEGPRP | -0.363 |
| RRIRLRPPRLPRPRPRPIFQPRP | -0.192 |
| RRIRCRPPRLPRPRPRPRSSPRP | -0.138 |
| RRIRMRPPRLPRPRPRPQFIPRP | -0.0965 |
| RRIRNRPPRLPRPRPRPDMGPRP | -0.00968 |
| RRIRARPPRLPRPRPRPNKLPRP | -0.206 |
| RRIRGRPPRLPRPRPRPNETPRP | 0.0274 |
| RRIRKRPPRLPRPRPRPFHSPRP | 0.00367 |
| RRIRRRPPRLPRPRPRPLFCPRP | 0.24 |
| RRIRHRPPRLPRPRPRPKHEPRP | -0.156 |
| RRIRWRPPRLPRPRPRPEYFPRP | -0.0445 |
| RRIRWRPPRLPRPRPRPYNDPRP | -0.194 |
| RRIRSRPPRLPRPRPRPLLEPRP | 0.243 |
| RRIRARPPRLPRPRPRPMHDPRP | 0.341 |
| RRIRARPPRLPRPRPRPCTLPRP | 0.151 |
| RRIRYRPPRLPRPRPRPHWCPRP | -0.0867 |
| RRIRHRPPRLPRPRPRPRHCPRP | 0.03 |
| RRIRFRPPRLPRPRPRPKWKPRP | -0.0366 |
| RRIRLRPPRLPRPRPRPQEIPRP | -0.0701 |
| RRIRARPPRLPRPRPRPLESPRP | 0.486 |
| RRIRPRPPRLPRPRPRPCGYPRP | -0.136 |
| RRIRTRPPRLPRPRPRPEQEPRP | -0.0113 |
